# Assay: soluble on expression in E. coli; label from the status in PepcDB or PDB records
row,Sequence,soluble on expression in E. coli
1,GPGSMYRLFSCCKTNELKRLFSHALDASIKNEGVAQQRKRQVLPRRHRKLHKLTIREENEEGLRDFLPPKPVVPAGWKLEHVKGSNRFDLRKSVEIRDCGKEHLHAVAMMEVKEYEGTYRMDNGEREEEEYLFFTLFVQKNRFPGALEFGLTSIDMELVMDSLAIHNNREELEDAYGALSVSTSRNGTSNRIIEKSNLSCRSCRDNRYRGPMLSELDDDFSDEILDYLDERGVNNGFAEYMMAQAHFFEQEEYINWIRLLRQFAQ,not soluble
2,GPLGSGMRFMPVQSNFVINHGKLTNQLLQAVAKQTRNGDTQQWFQQEQTTYISRTVNRTLDDYCRSNNSVISKETKGHIFRAVENALQQPLDMNGAQSSIGHFLQSNKYFNQKVDEQCGKRVDPITRFNTQTKMIEQVSQEIFERNFSGFKVSEIKAITQNAILEHVQDTRL,soluble
3,GPLGSMTTKQTVSLFIWLPESKQKTLFISTKNHTQFELNNIIFDVTLSTELPDKEPNAIITKRTHPVGKMADEMRKYEKDHPKVLFLESSAIHDMMSSREEINALLIKNNIPIPNSFSVKSKEEVIQLLQSKQLILPFIVKPENAQGTFNAHQMKIVLEQEGIDDIHFPCLCQHYINHNNKIVKVFCIGNTLKWQTRTSLPNVHRCGIKSVDFNNQHLEDILSWPEGVIDKQDIIENSANRFGSKILEDPILLNLTSEAEMRDLAYKVRCALGVQLCGIDFIKENEQGNPLVVDVNVFPSYGGKVDFDWFVEKVALCYTEVAKI,soluble
4,GPQLDHVDIDLTDKAAMQDGARTFANYCMGCHSAKFQRYERVATDLGIPADLMMEKLVFTGAKIGDHMDIGMKPADAKTWFGAAPPDLTLVARVRGTDWLYSYLRSFYEDPKRPWGVNNVIFPNVGMPNVLAPLQGRQVIGCKQVQVVEDGKKQFDPLTGTPLTHEACDQLTVVPKTGELNEAQFDEKVKNLVTFLAYSANPNKLASERIG,not soluble
5,GSAAPPAKEIPEVLVDPRSRRRYVRGRFLGKGGFAKCFEISDADTKEVFAGKIVPKSLLLKPHQREKMSMEISIHRSLAHQHVVGFHGFFEDNDFVFVVLELCRRRSLLELHKRRKALTEPEARYYLRQIVLGCQYLHRNRVIHRDLKLGNLFLNEDLEVKIGDFGLATKVEYDGERKKTLCGTPNYIAPEVLSKKGHSFEVDVWSIGCIMYTLLVGKPPFETSCLKETYLRIKKNEYSIPKHINPVAASLIQKMLQTDPTARPTINELLNDEFFTSGYIPARLPITCLTIPPRFSIAPSSLDPSNRKPLTVLNK,soluble
6,GSAMRSAQVYRWQIPMDAGVVLRDRRLKTRDGLYVCLREGEREGWGEISPLPGFSQETWEEAQSVLLAWVNNWLAGDCELPQMPSVAFGVSCALAELTDTLPQAANYRAAPLCNGDPDDLILKLADMPGEKVAKVKVGLYEAVRDGMVVNLLLEAIPDLHLRLDANRAWTPLKGQQFAKYVNPDYRDRIAFLEEPCKTRDDSRAFARETGIAIAWDESLREPDFAFVAEEGVRAVVIKPTLTGSLEKVREQVQAAHALGLTAVISSSIESSLGLTQLARIAAWLTPDTIPGLDTLDLMQAQQVRRWPGSTLPVVEVDALERLL,soluble
7,GSDITSLYKKAGSEMNGPRCPVQTVGQWLESIGLPQYENHLMANGFDNVQFMGSNVMEDQDLLEIGILNSGHRQRILQAIQLLPKMRPIGHDGYHPTSVAEWL,soluble
8,GSEQQDLDDLAQVILSAVTSNTDTSKSARAQALSTALASSLADLLISESSGSSYQTQISALTNILSDCFVTTTGSNNPAFVSRVQTLIAVLSQSSSNAISGATGGSAFAQSQAFQQSA,soluble
9,GSFTFSPGQDIQLIPPLINLLMSIEPDVIYAGHDNTKPDTSSSLLTSLNQLGERQLLSVVKWSKSLPGFRNLHIDDQITLIQYSWMSLMVFGLGWRSYKHVSGQMLYFAPDLILNEQRMKESSFYSLCLTMWQIPQEFVKLQVSQEEFLCMKVLLLLNTIPLEGLRSQTQFEEMRSSYIRELIKAIGLRQKGVVSSSQRFYQLTKLLDNLHDLVKQLHLYCLNTFIQSRALSVEFPEMMSEVIAAQLPKILAGMVKPLLFHKK,soluble
10,GSGVDFYDVAFKVMLVGDSGVGKTCLLVRFKDGAFLAGTFISTVGIDFRNKVLDVDGVKVKLQMWDTAGQERFRSVTHAYYRDAHALLLLYDVTNKASFDNIQAWLTEIHEYAQHDVALMLLGNKVDSAHERVVKREDGEKLAKEYGLPFMETSAKTGLNVDLAFTAIAKELKRRSMKAP,soluble
11,GSHMAAELDSLLGQEKERFQVLPGRDKMLYVAAQNERDTLWARQVLARGDYDKNARVINENEENKRISIWLDTYYPQLAYYRIHFDEPRKPVFWLSRQRNTMSKKELEVLSQKLRALMPYADSVNITLMDDVTAAGQAEAGLKQQALPYSRRNHKGGVTFVIQGALDDVEILRARQFVDSYYRTWGGRYVQFAIELKDDWLKGRSFQYGAEGYIKMSPGHWYFPSPL,soluble
12,GSHMAKEEIIWESLSVDVGSQGNPGIVEYKGVDTKTGEVLFEREPIPIGTNNMGEFLAIVHGLRYLKERNSRKPIYSNSQTAIKWVKDKKAKSTLVRNEETALIWKLVDEAEEWLNTHTYETPILKWQTDKWGEIKADYGRK,soluble
13,GSHMARYDSLLQALGNTPLVGLQRLSPRWDDGRDGPHVRLWAKLEDRNPTGSIKDRPAVRMIEQAEADGLLRPGATILEPTSGNTGISLAMAARLKGYRLICVMPENTSVERRQLLELYGAQIIFSAAEGGSNTAVATAKELAATNPSWVMLYQYGNPANTDSHYCGTGPELLADLPEITHFVAGLGTTGTLMGTGRFLREHVANVKIVAAEPRYGEGVYALRNMDEGFVPELYDPEILTARYSVGAVDAVRRTRELVHTEGIFAGISTGAVLHAALGVGAGALAAGERADIALVVADAGWKYLSTGAYAGSLDDAETALEGQLWA,soluble
14,GSHMETVFTEKAPKPVGPYSQAIKVGNTLYVSGQIPIDPRTNEIVKGDIKVQTRQVLDNIKEIVKAAGFSLSDVAMAFVFLKDMNMFNDFNSVYAEYFKDKPPARVTVEVSRLPKDALIEIAVICSKG,soluble
15,GSHMFKCMEALGMESGEIHSDQITASSQYSTNWSAERSRLNYPENGWTPGEDSYREWIQVDLGLLRFVTAVGTQGAISKETKKKYYVKTYKIDVSSNGEDWITIKEGNKPVLFQGNTNPTDVVVAVFPKPLITRFVRIKPATWETGISMRFEVYGCKITDYPCSGMLGMVSGLISDSQITSSNQGDRNWMPENIRLVTSRSGWALPPAPHSYINEWLQIDLGEEKIVRGIIIQGGKHRENKVFMRKFKIGYSNNGSDWKMIMDDSKRKAKSFEGNNNYDTPELRTFPALSTRFIRIYPERATHGGLGLRMELLGCEVE,soluble
16,GSHMKEPKLSPKQERFIEEYFINDMNATKAAIAAGYSKNSASAIGAENLQKPAIRARIDARLK,soluble
17,GSHMKVLLLGFEFLPVKVGGLAEALTAISEALASLGHEVLVFTPSHGRFQGEEIGKIRVFGEEVQVKVSYEERGNLRIYRIGGGLLDSEDVYGPGWDGLIRKAVTFGRASVLLLNDLLREEPLPDVVHFHDWHTVFAGALIKKYFKIPAVFTIHRLNKSKLPAFYFHEAGLSELAPYPDIDPEHTGGYIADIVTTVSRGYLIDEWGFFRNFEGKITYVFNGIDCSFWNESYLTGSRDERKKSLLSKFGMDEGVTFMFIGRFDRGQKGVDVLLKAIEILSSKKEFQEMRFIIIGKGDPELEGWARSLEEKHGNVKVITEMLSREFVRELYGSVDFVIIPSYFEPFGLVALEAMCLGAIPIASAVGGLRDIITNETGILVKAGDPGELANAILKALELSRSDLSKFRENCKKRAMSFSWEKSAERYVKAYTGSIDRAFDFIL,soluble
18,GSHMLEMRIGHGFDVHAFGGEGPIIIGGVRIPYEKGLLAHSDGDVALHALTDALLGAAALGDIGKLFPDTDPAFKGADSRELLREAWRRIQAKGYTLGNVDVTIIAQAPKMLPHIPQMRVFIAEDLGCHMDDVNVKATTTEKLGFTGRGEGIACEAVALLIKATK,soluble
19,GSHMLITPRNIFRHELIGLSVRIARSVHRDIQGISGRVVDETRNTLRIEMDDGREITVPKGIAVFHFRTPQGELVEIDGRALVARPEERIKKKFRKP,soluble
